A short description of this data set: Zeta Potential (surface charge) by electrophoretic mobility / PCS, PSS NICOMP 380 DLS/ZLS. Format: physicochemical. The conditions noted are these: FIG. 5; pH 7. On the procedure:
The surface charge (also referred to as Zeta potential) of the nanoparticles was determined by measuring their electrophoretic mobility using a PSS NICOMP™ 380 DLS/ZLS. Measurements were made at particle concentrations of 6 to 15 mg/ml, temperatures between room temperature to 50° C., and applying an external voltage of 5 Volts.
The surface charge (also referred to as Zeta potential or ζ-potential) may be measured using Zeta Sizer as e.g. PSS NICOMP™ 380 DLS/ZLS. Zeta Charge, or Net Surface Charge of a molecule or a particle is measured by PCS in the presence of an applied electrical field.

As to “human serum albumin [cleaned and stabilized albumin molecules]”, the “global surface charge, PCS based measurement of the Zeta Potential” value was “about −5 mV”.

These data come from US20220280659A1, “Targeted Nanoparticles of Well-Defined and Reproducible Sizes” (STAMS DIAGNOSTICS GMBH, priority 2019, published 2022).
